Entries after “also recorded” stand apart in the source; their conditions may differ.
Columns and labels:
myofibroblasts = assay: myofibroblast apoptosis; assay type: cell-based; conditions: for myofibroblast apoptosis: N=6
Description: N=6. *, P<0.05; **, P<0.05.
(§1) Taken together, FMOD not only promotes TGF-β1-induced myofibroblast differentiation and contractility, but also accelerates myofibroblast clearance—resulting in lack of myofibroblast persistence in remodeling stage of FMOD-treated wounds.

[1] = test system: rat dermal fibroblast (RDF); assay: western blotting and qRT-PCR of α-SMA expression in rat dermal fibroblasts; assay type: cell-based
Description: Data are normalized to untreated RDFs at time 0 (dash lines). N=3. *, P<0.05.
(§2) Activity level of myofibroblast is related to the activity of fibromodulin. Fibromodulin can promote myofibroblast differentiation and apoptosis.

myofibroblast = assay: immunofluorescent (IF) staining for α-SMA stress fibers, myofibroblast differentiation in vitro; assay type: cell-based; conditions: FMOD combined with TGF-β1
Description: Formation of stress fibers stained strongly for α-SMA are indicated by yellow arrows. Scale bar=100 μm.
as §2

RDF = assay: in vitro collagen gel contraction; assay type: cell-based, rat; conditions: FMOD alone; N=6
Description: as §2

adult rat wounds [2] = assay: PCR array assay of gene expression in adult rat wounds; assay type: in vivo; conditions: for expression of α-SMA in wounds: FMOD-treated adult rat wounds
Description: Gene expression is normalized to unwounded skin (dashed lines). N=9 wounds from 9 animals. **, P<0.05.
Gene expression is normalized to unwounded skin (dashed lines). N=9 wounds from 9 animals. **, P<0.05

adult rat wounds [3] = assay: α-SMA-positive myofibroblasts in wounds; assay type: in vivo; conditions: FMOD-treated wounds; day 14 post injury
Description: as §1

adult rat skin wounds = assay: scar formation and tensile strength of adult rat skin wounds; assay type: in vivo
Description: as §1

With “TGF-β1: transforming growth factor (TGF)-β1, myofibroblast differentiation inducing agent” the “interleukin (IL)-1β-mediated apoptosis in myofibroblasts” value (myofibroblasts; effect of TGF-β1) was “completely blocked”.

B1: FMOD: fibromodulin protein; an example is SEQ ID NO:1 (Genebank NM 002023) (protein, listed as Homo sapiens)
chain: WTSLLLLAGLFSLSQAQYEDDPHWWFHYLRSQQSTYYDPYDPYPYETYEPYPYGVDEGPAYTYGSPSPPDPRDCPQECDCPPNFPTAMYCDNRNLKYLPFVPSRMKYVYFQNNQITSIQEGVFDNATGLLWIALHGNQITSDKVGRKVFSKLRHLERLYLDHNNLTRMPGPLPRSLRELHLDHNQISRVPNNALEGLENLTALYLQHNEIQEVGSSMRGLRSLILLDLSYNHLRKVPDGLPSALEQLYMEHNNVYTVPDSYFRGAPKLLYVRLSHNSLTNNGLASNTFNSSSLLELDLSYNQLQKIPPVNTNLENLYLQGNRINEFSISSFCTVVDVVNFSKLQVLRLDGNEIKRSAMPADAPLCLRLASLIEI
B1 was tested, and the “α-smooth muscle actin (α-SMA) expression” value ([1]; FMOD alone, western blotting and qRT-PCR, N=3) was “no significant effect”, the “TGF-β1-induced α-SMA expression” value ([1]; FMOD in the presence of TGF-β1, N=3) was “significantly enhances” and the “TGF-β1-induced α-SMA expression” value ([1]; FMOD in the presence of TGF-β1, N=3, listed as Fibromodulin) was “significantly promoted”. For the same molecule, the “myofibroblast differentiation and contractility in vitro” value (myofibroblast) was “significantly enhanced”, the “RDF contraction in collagen gel” value (RDF) was “minimal effects” and the “expression of α-SMA in wounds” value (adult rat wounds [2]; early 3-day time-point) was “significantly upregulated”. The “expression of α-SMA in wounds” value (adult rat wounds [2]; late 7- and 14-day time-points) was “reduced”, the IL-1β expression (adult rat wounds [2]; day 3 and 7 adult rat wounds) was “significantly stimulated” and the IL-10 expression (adult rat wounds [2]; day 3 and 7 adult rat wounds, PCR array) was “significantly stimulated”. For the same molecule, the myofibroblast apoptosis (myofibroblasts; FMOD alone) was “promoted myofibroblast apoptosis as effectively as IL-1β; also recorded: induces myofibroblast apoptosis as effectively as IL-10”, the myofibroblast apoptosis (myofibroblasts; in the presence of TGF-β1) was “promoted apoptosis even in the presence of TGF-1β” and the α-SMA-positive myofibroblasts (adult rat wounds [3]) was “diminished; also recorded: decreased”. For the same molecule, the collagen architecture (adult rat skin wounds; adult rat primary closure wounds) was “more organized collagen architecture”, the scar size (adult rat skin wounds; adult rat skin wounds, doses □ 0.4 mg/ml, day 14 post injury, compared to control) was “significant smaller scar; also recorded: significantly reduces” and the tensile strength (adult rat skin wounds; adult rat wounds) was “stronger tensile strength; also recorded: increasing tensile strength in a dose dependent manner”.
